{"source": "patent US20220289848A1", "about": "(published 2022)", "binders": {"B1": {"name": "PDL1a-E-HN (bispecific antibody)", "heavy": "not shown", "light": "EIVLTQSPATLSLSPGERATLSCRASENVGTYISWYQQKPGQAPRLLIYGASNRYTGIPARFSGSGSGTDFTLTISSLEPEDFAVYYCGESYGHLYTFGGGTKVEIKRTVAAPSVFIFPPSDEQLKSGTASVVCLLNNFYPREAKVQWKVDNALQSGNSQESVTEQDSKDSTYSLSSTLTLSKADYEKHKVYACEVTHQGLSSPVTKSFNRGEC"}, "B2": {"name": "PDL1c-E-HC (bispecific antibody)", "heavy": "not shown", "light": "B1 light"}, "B3": {"name": "PDL1b-E-HC (bispecific antibody)", "heavy": "not shown", "light": "B1 light"}, "B4": {"name": "PDL1a-G15-HC (bispecific antibody)", "heavy": "not shown", "light": "B1 light"}, "B5": {"name": "PDL1b-E-HN (bispecific antibody)", "heavy": "not shown", "light": "B1 light"}, "B6": {"name": "PDL1c-E-HN (bispecific antibody)", "heavy": "not shown", "light": "B1 light"}, "B7": {"name": "anti-CD47 monoclonal antibody (mAb) (antibody, V domains shown)", "VH": "EVQLVQSGAEVKKPGSSVKVSCKASGYSFTHHWIHWVRQAPGQGLEWMGMIDASDSETRLSQKFKDRVTITADKSTSTAYMELSSLRSEDTAVYYCARLGRYYFDYWGQGTTVTVSS", "VL": "EIVLTQSPATLSLSPGERATLSCRASENVGTYISWYQQKPGQAPRLLIYGASNRYTGIPARFSGSGSGTDFTLTISSLEPEDFAVYYCGESYGHLYTFGGGTKVEIKR"}, "B8": {"name": "PDL1a-E-HC (bispecific antibody)", "heavy": "not shown", "light": "B1 light"}, "B9": {"name": "PDL1a-G15-HN (bispecific antibody)", "heavy": "not shown", "light": "B1 light"}, "B10": {"name": "PDL1a-E-LN (bispecific antibody)", "heavy": "not shown", "light": "EVQLVESGGGLVQPGGSLRLSCAASGRTFVTYGMGWFRQAPGKGREFVSAISWSGSMTSYGDSVKGRFTISRDNAKNTLYLQMNSLRPEDTAVYYCAAALGAVVYTTREPYTYWGQGTLVTVSSEPKSSDKTHTSPPSPEIVLTQSPATLSLSPGERATLSCRASENVGTYISWYQQKPGQAPRLLIYGASNRYTGIPARFSGSGSGTDFTLTISSLEPEDFAVYYCGESYGHLYTFGGGTKVEIKRTVAAPSVFIFPPSDEQLKSGTASVVCLLNNFYPREAKVQWKVDNALQSGNSQESVTEQDSKDSTYSLSSTLTLSKADYEKHKVYACEVTHQGLSSPVTKSFNRGEC"}, "B11": {"name": "PDL1a-G15-LN (bispecific antibody)", "heavy": "not shown", "light": "EVQLVESGGGLVQPGGSLRLSCAASGRTFVTYGMGWFRQAPGKGREFVSAISWSGSMTSYGDSVKGRFTISRDNAKNTLYLQMNSLRPEDTAVYYCAAALGAVVYTTREPYTYWGQGTLVTVSSGGGGSGGGGSGGGGSEIVLTQSPATLSLSPGERATLSCRASENVGTYISWYQQKPGQAPRLLIYGASNRYTGIPARFSGSGSGTDFTLTISSLEPEDFAVYYCGESYGHLYTFGGGTKVEIKRTVAAPSVFIFPPSDEQLKSGTASVVCLLNNFYPREAKVQWKVDNALQSGNSQESVTEQDSKDSTYSLSSTLTLSKADYEKHKVYACEVTHQGLSSPVTKSFNRGEC"}, "B12": {"name": "PDL1c-E-LN (bispecific antibody)", "heavy": "not shown", "light": "EVQLVESGGGLVQPGGSLRLSCAASGRTFITYAIGWFRQAPGKGREFVSAISWSGSMTSYADSVKGRFTISRDNAKNTLYLQMNSLRPEDTAVYYCAAHRGAIAPIAQSVYTNWGQGTLVTVSSEPKSSDKTHTSPPSPEIVLTQSPATLSLSPGERATLSCRASENVGTYISWYQQKPGQAPRLLIYGASNRYTGIPARFSGSGSGTDFTLTISSLEPEDFAVYYCGESYGHLYTFGGGTKVEIKRTVAAPSVFIFPPSDEQLKSGTASVVCLLNNFYPREAKVQWKVDNALQSGNSQESVTEQDSKDSTYSLSSTLTLSKADYEKHKVYACEVTHQGLSSPVTKSFNRGEC"}, "B13": {"name": "PDL1b-E-LN (bispecific antibody)", "heavy": "not shown", "light": "B10 light with M57S"}}, "note": "Where a chain is given by its changes, count along the chain named."}
{"biological_target": "CD47 expressed on CHO-K1 cells (UniProt Q08722 19-323)", "assay": "FACS", "units": {"EC50": "pM"}}
{"binder": "B1", "EC50": 854}
{"binder": "B2", "EC50": 287}
{"binder": "B3", "EC50": 328}
{"binder": "B4", "EC50": 247}
{"binder": "B5", "EC50": 521}
{"binder": "B6", "EC50": 700}
{"binder": "B7", "EC50": 324}
{"binder": "B8", "EC50": 255}
{"binder": "B9", "EC50": 664}
{"biological_target": "PD-L1 expressed on CHO-K1 cells (UniProt Q9NZQ7 19-290)", "sequence (Q9NZQ7 19-290)": "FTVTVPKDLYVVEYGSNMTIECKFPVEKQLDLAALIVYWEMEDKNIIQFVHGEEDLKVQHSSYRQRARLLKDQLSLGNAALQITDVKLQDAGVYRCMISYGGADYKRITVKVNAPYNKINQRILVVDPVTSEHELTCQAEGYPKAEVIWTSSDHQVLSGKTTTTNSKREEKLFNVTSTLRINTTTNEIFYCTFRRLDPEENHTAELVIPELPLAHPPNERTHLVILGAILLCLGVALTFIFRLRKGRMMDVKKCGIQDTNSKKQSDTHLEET", "assay": "FACS binding, CHO-K1 cells expressing PD-L1", "units": {"EC50": "pM"}}
{"binder": "B1", "EC50": 759}
{"binder": "B10", "EC50": 351}
{"binder": "B6", "EC50": 1480}
{"binder": "B11", "EC50": 1110}
{"binder": "B12", "EC50": 718}
{"binder": "B13", "EC50": 1180}
